The text below walks through data of CN111378038A (UNIV FUDAN, dated 2020).

The target in assay [1] is T1, PD-1(ECD)-hFc融合蛋白 (human, UniProt Q15116 25-170).
T1 construct: extracellular domain; It was biotin-labelled for the panning and coated on the plate in the ELISA; also called PD-1(ECD)-hFc蛋白; PD-1蛋白; not shown: hFc (human Fc)
Put plainly: ELISA, PD-1(ECD)-hFc coated, serially diluted antibody, HRP-anti-Fab detection; reference: P2-G12 Fab. On the technique in general: In an ELISA, binding on a coated surface is turned into a signal by an enzyme label.

The target of assay [2] is T2, 人全长PD-1蛋白 (过表达于HEK293T细胞) (human, UniProt Q15116 25-288).
T2 construct: whole, on cells; also called 过表达PD-1的HEK293T细胞
T2 sequence (Q15116 25-288): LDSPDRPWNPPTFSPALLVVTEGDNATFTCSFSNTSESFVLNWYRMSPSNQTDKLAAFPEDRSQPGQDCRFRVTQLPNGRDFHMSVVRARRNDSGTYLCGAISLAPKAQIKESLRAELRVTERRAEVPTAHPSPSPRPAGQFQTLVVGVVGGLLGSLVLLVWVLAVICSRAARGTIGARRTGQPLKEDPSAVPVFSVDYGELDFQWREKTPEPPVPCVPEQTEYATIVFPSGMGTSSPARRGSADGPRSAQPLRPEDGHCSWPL
As to the kind of experiment: flow cytometry on HEK293T cells overexpressing human full-length PD-1, anti-human IgG1-FITC detection.

The target in assay [3] is T1, PD-1(ECD)-hFc融合蛋白. As to the kind of experiment: ELISA, PD-1(ECD)-hFc coated, serially diluted antibody, HRP-anti-Fab detection.

T1 sequence (Q15116 25-170): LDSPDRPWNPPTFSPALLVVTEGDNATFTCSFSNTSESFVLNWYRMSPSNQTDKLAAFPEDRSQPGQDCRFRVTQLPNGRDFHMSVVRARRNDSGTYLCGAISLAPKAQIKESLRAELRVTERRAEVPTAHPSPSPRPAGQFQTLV

B1: P2-G12 IgG1 (antibody, V domains shown)
VH: EVQLVQSGGGLVQPGGSLRLSCAASGFTFSSYSMNWVRQAPGKGLEWVSAISGSGGSTYYADSVKGRFTISRDNSKNTLYLQMNSLRAEDTAVYYCARDPYGSGSYYRGDAFDIWGQGTMVTVSS
VL: ELTQPPSVSVAPGKTARITCGGNNIGSKSVHWYQQKPGQAPVLAIYYDSDRPSGIPERFSGSNSGNTATLTISRVEVGDEADYYCQVWDSVSDVVFGGGTKLTVL
notes: also called 单克隆抗体P2-G12
For B1, the fold increase of binding ability against the Fab form in the assay with PD-1(ECD)-hFc融合蛋白 [1] worked out at 100 fold. The binding result in assay [2] is “binds”.

B2: P2-G12 Fab (Fab, V domains shown)
VH: EVQLVQSGGGLVQPGGSLRLSCAASGFTFSSYSMNWVRQAPGKGLEWVSAISGSGGSTYYADSVKGRFTISRDNSKNTLYLQMNSLRAEDTAVYYCARDPYGSGSYYRGDAFDIWGQGTMVTVSS
VL: ELTQPPSVSVAPGKTARITCGGNNIGSKSVHWYQQKPGQAPVLAIYYDSDRPSGIPERFSGSNSGNTATLTISRVEVGDEADYYCQVWDSVSDVVFGGGTKLTVL
notes: Fully human Fab from a phage display library, expressed in E. coli HB2151 and purified on Ni-NTA; P2-G12 is the only antibody described; also called PD-1抗体 (Fab形式)
Regarding B2, the binding result with PD-1(ECD)-hFc融合蛋白 [3] is “binds”.
